# According to patent US20210388087A1 (Chugai, published 2021):
# Biological target: T1, Human CD137 ECD (human)
# T1 construct: also called 4-1BB
# Assay: single mutant vs template dBBDu183H
# T1 sequence (chain, as listed by the source limits assumed): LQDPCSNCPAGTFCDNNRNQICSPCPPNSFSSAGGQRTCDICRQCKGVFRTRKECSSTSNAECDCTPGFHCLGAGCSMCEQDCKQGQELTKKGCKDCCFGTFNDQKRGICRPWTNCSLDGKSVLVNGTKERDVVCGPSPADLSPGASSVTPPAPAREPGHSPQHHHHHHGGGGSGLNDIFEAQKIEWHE
row,fold change of affinity [fold],Binder
1,0.4,"H183/L072 VH I51S (antibody, name in Kabat numbering, V domains shown) VH: QVQLVESGGGLVQPGRSLRLSCAASGFTFSNAWMHWVRQAPGKGLEWVAQSKDKGNAYAAYYAPSVKGRFTISRDDSKNSIYLQMNSLKTEDTAVYYCHYVHYASASTVLPAFGVDAWGQGTTVTVSS VL: DIVMTQSPLSLPVTPGEPASISCQASQELVHMNRNTYLHWYQQKPGQAPRLLIYKVSNRFPGVPDRFSGSGSGTDFTLKISRVEAEDVGVYYCAQGTSVPFTFGQGTKLEIK"
2,0.1,"H183/L072 VH I51L (antibody, name in Kabat numbering, V domains shown) VH: QVQLVESGGGLVQPGRSLRLSCAASGFTFSNAWMHWVRQAPGKGLEWVAQLKDKGNAYAAYYAPSVKGRFTISRDDSKNSIYLQMNSLKTEDTAVYYCHYVHYASASTVLPAFGVDAWGQGTTVTVSS VL: DIVMTQSPLSLPVTPGEPASISCQASQELVHMNRNTYLHWYQQKPGQAPRLLIYKVSNRFPGVPDRFSGSGSGTDFTLKISRVEAEDVGVYYCAQGTSVPFTFGQGTKLEIK"
3,1,"H183/L072 VH I51V (antibody, name in Kabat numbering, V domains shown) VH: QVQLVESGGGLVQPGRSLRLSCAASGFTFSNAWMHWVRQAPGKGLEWVAQVKDKGNAYAAYYAPSVKGRFTISRDDSKNSIYLQMNSLKTEDTAVYYCHYVHYASASTVLPAFGVDAWGQGTTVTVSS VL: DIVMTQSPLSLPVTPGEPASISCQASQELVHMNRNTYLHWYQQKPGQAPRLLIYKVSNRFPGVPDRFSGSGSGTDFTLKISRVEAEDVGVYYCAQGTSVPFTFGQGTKLEIK"
4,0.3,"H183/L072 VH I51T (antibody, name in Kabat numbering, V domains shown) VH: QVQLVESGGGLVQPGRSLRLSCAASGFTFSNAWMHWVRQAPGKGLEWVAQTKDKGNAYAAYYAPSVKGRFTISRDDSKNSIYLQMNSLKTEDTAVYYCHYVHYASASTVLPAFGVDAWGQGTTVTVSS VL: DIVMTQSPLSLPVTPGEPASISCQASQELVHMNRNTYLHWYQQKPGQAPRLLIYKVSNRFPGVPDRFSGSGSGTDFTLKISRVEAEDVGVYYCAQGTSVPFTFGQGTKLEIK"
5,0.2,"H183/L072 VH I51M (antibody, name in Kabat numbering, V domains shown) VH: QVQLVESGGGLVQPGRSLRLSCAASGFTFSNAWMHWVRQAPGKGLEWVAQMKDKGNAYAAYYAPSVKGRFTISRDDSKNSIYLQMNSLKTEDTAVYYCHYVHYASASTVLPAFGVDAWGQGTTVTVSS VL: DIVMTQSPLSLPVTPGEPASISCQASQELVHMNRNTYLHWYQQKPGQAPRLLIYKVSNRFPGVPDRFSGSGSGTDFTLKISRVEAEDVGVYYCAQGTSVPFTFGQGTKLEIK"
6,0.2,"H183/L072 VH I51N (antibody, name in Kabat numbering, V domains shown) VH: QVQLVESGGGLVQPGRSLRLSCAASGFTFSNAWMHWVRQAPGKGLEWVAQNKDKGNAYAAYYAPSVKGRFTISRDDSKNSIYLQMNSLKTEDTAVYYCHYVHYASASTVLPAFGVDAWGQGTTVTVSS VL: DIVMTQSPLSLPVTPGEPASISCQASQELVHMNRNTYLHWYQQKPGQAPRLLIYKVSNRFPGVPDRFSGSGSGTDFTLKISRVEAEDVGVYYCAQGTSVPFTFGQGTKLEIK"
7,0.1,"H183/L072 VH I51K (antibody, name in Kabat numbering, V domains shown) VH: QVQLVESGGGLVQPGRSLRLSCAASGFTFSNAWMHWVRQAPGKGLEWVAQKKDKGNAYAAYYAPSVKGRFTISRDDSKNSIYLQMNSLKTEDTAVYYCHYVHYASASTVLPAFGVDAWGQGTTVTVSS VL: DIVMTQSPLSLPVTPGEPASISCQASQELVHMNRNTYLHWYQQKPGQAPRLLIYKVSNRFPGVPDRFSGSGSGTDFTLKISRVEAEDVGVYYCAQGTSVPFTFGQGTKLEIK"

# The next lines start with the binder.
row,Binder,fold change of affinity [fold]
1,"H183/L072 VH H35Y (antibody, name in Kabat numbering, V domains shown) VH: QVQLVESGGGLVQPGRSLRLSCAASGFTFSNAWMYWVRQAPGKGLEWVAQIKDKGNAYAAYYAPSVKGRFTISRDDSKNSIYLQMNSLKTEDTAVYYCHYVHYASASTVLPAFGVDAWGQGTTVTVSS VL: DIVMTQSPLSLPVTPGEPASISCQASQELVHMNRNTYLHWYQQKPGQAPRLLIYKVSNRFPGVPDRFSGSGSGTDFTLKISRVEAEDVGVYYCAQGTSVPFTFGQGTKLEIK",3.9
2,"H183/L072 VH H93I (antibody, name in Kabat numbering, V domains shown) VH: QVQLVESGGGLVQPGRSLRLSCAASGFTFSNAWMHWVRQAPGKGLEWVAQIKDKGNAYAAYYAPSVKGRFTISRDDSKNSIYLQMNSLKTEDTAVYYCIYVHYASASTVLPAFGVDAWGQGTTVTVSS VL: DIVMTQSPLSLPVTPGEPASISCQASQELVHMNRNTYLHWYQQKPGQAPRLLIYKVSNRFPGVPDRFSGSGSGTDFTLKISRVEAEDVGVYYCAQGTSVPFTFGQGTKLEIK",0
3,"H183/L072 VH H93L (antibody, name in Kabat numbering, V domains shown) VH: QVQLVESGGGLVQPGRSLRLSCAASGFTFSNAWMHWVRQAPGKGLEWVAQIKDKGNAYAAYYAPSVKGRFTISRDDSKNSIYLQMNSLKTEDTAVYYCLYVHYASASTVLPAFGVDAWGQGTTVTVSS VL: DIVMTQSPLSLPVTPGEPASISCQASQELVHMNRNTYLHWYQQKPGQAPRLLIYKVSNRFPGVPDRFSGSGSGTDFTLKISRVEAEDVGVYYCAQGTSVPFTFGQGTKLEIK",0
4,"H183/L072 VH I51A (antibody, name in Kabat numbering, V domains shown) VH: QVQLVESGGGLVQPGRSLRLSCAASGFTFSNAWMHWVRQAPGKGLEWVAQAKDKGNAYAAYYAPSVKGRFTISRDDSKNSIYLQMNSLKTEDTAVYYCHYVHYASASTVLPAFGVDAWGQGTTVTVSS VL: DIVMTQSPLSLPVTPGEPASISCQASQELVHMNRNTYLHWYQQKPGQAPRLLIYKVSNRFPGVPDRFSGSGSGTDFTLKISRVEAEDVGVYYCAQGTSVPFTFGQGTKLEIK",0.1
5,"H183/L072 VH I51G (antibody, name in Kabat numbering, V domains shown) VH: QVQLVESGGGLVQPGRSLRLSCAASGFTFSNAWMHWVRQAPGKGLEWVAQGKDKGNAYAAYYAPSVKGRFTISRDDSKNSIYLQMNSLKTEDTAVYYCHYVHYASASTVLPAFGVDAWGQGTTVTVSS VL: DIVMTQSPLSLPVTPGEPASISCQASQELVHMNRNTYLHWYQQKPGQAPRLLIYKVSNRFPGVPDRFSGSGSGTDFTLKISRVEAEDVGVYYCAQGTSVPFTFGQGTKLEIK",0.1
6,"H183/L072 VH H93A (antibody, name in Kabat numbering, V domains shown) VH: QVQLVESGGGLVQPGRSLRLSCAASGFTFSNAWMHWVRQAPGKGLEWVAQIKDKGNAYAAYYAPSVKGRFTISRDDSKNSIYLQMNSLKTEDTAVYYCAYVHYASASTVLPAFGVDAWGQGTTVTVSS VL: DIVMTQSPLSLPVTPGEPASISCQASQELVHMNRNTYLHWYQQKPGQAPRLLIYKVSNRFPGVPDRFSGSGSGTDFTLKISRVEAEDVGVYYCAQGTSVPFTFGQGTKLEIK",0
7,"H183/L072 VH H96P (antibody, name in Kabat numbering, V domains shown) VH: QVQLVESGGGLVQPGRSLRLSCAASGFTFSNAWMHWVRQAPGKGLEWVAQIKDKGNAYAAYYAPSVKGRFTISRDDSKNSIYLQMNSLKTEDTAVYYCHYVPYASASTVLPAFGVDAWGQGTTVTVSS VL: DIVMTQSPLSLPVTPGEPASISCQASQELVHMNRNTYLHWYQQKPGQAPRLLIYKVSNRFPGVPDRFSGSGSGTDFTLKISRVEAEDVGVYYCAQGTSVPFTFGQGTKLEIK",0
8,"H183/L072 VH H93M (antibody, name in Kabat numbering, V domains shown) VH: QVQLVESGGGLVQPGRSLRLSCAASGFTFSNAWMHWVRQAPGKGLEWVAQIKDKGNAYAAYYAPSVKGRFTISRDDSKNSIYLQMNSLKTEDTAVYYCMYVHYASASTVLPAFGVDAWGQGTTVTVSS VL: DIVMTQSPLSLPVTPGEPASISCQASQELVHMNRNTYLHWYQQKPGQAPRLLIYKVSNRFPGVPDRFSGSGSGTDFTLKISRVEAEDVGVYYCAQGTSVPFTFGQGTKLEIK",0
9,"H183/L072 VH H96I (antibody, name in Kabat numbering, V domains shown) VH: QVQLVESGGGLVQPGRSLRLSCAASGFTFSNAWMHWVRQAPGKGLEWVAQIKDKGNAYAAYYAPSVKGRFTISRDDSKNSIYLQMNSLKTEDTAVYYCHYVIYASASTVLPAFGVDAWGQGTTVTVSS VL: DIVMTQSPLSLPVTPGEPASISCQASQELVHMNRNTYLHWYQQKPGQAPRLLIYKVSNRFPGVPDRFSGSGSGTDFTLKISRVEAEDVGVYYCAQGTSVPFTFGQGTKLEIK",0.5
10,"H183/L072 VH H96A (antibody, name in Kabat numbering, V domains shown) VH: QVQLVESGGGLVQPGRSLRLSCAASGFTFSNAWMHWVRQAPGKGLEWVAQIKDKGNAYAAYYAPSVKGRFTISRDDSKNSIYLQMNSLKTEDTAVYYCHYVAYASASTVLPAFGVDAWGQGTTVTVSS VL: DIVMTQSPLSLPVTPGEPASISCQASQELVHMNRNTYLHWYQQKPGQAPRLLIYKVSNRFPGVPDRFSGSGSGTDFTLKISRVEAEDVGVYYCAQGTSVPFTFGQGTKLEIK",0
11,"H183/L072 VH H96M (antibody, name in Kabat numbering, V domains shown) VH: QVQLVESGGGLVQPGRSLRLSCAASGFTFSNAWMHWVRQAPGKGLEWVAQIKDKGNAYAAYYAPSVKGRFTISRDDSKNSIYLQMNSLKTEDTAVYYCHYVMYASASTVLPAFGVDAWGQGTTVTVSS VL: DIVMTQSPLSLPVTPGEPASISCQASQELVHMNRNTYLHWYQQKPGQAPRLLIYKVSNRFPGVPDRFSGSGSGTDFTLKISRVEAEDVGVYYCAQGTSVPFTFGQGTKLEIK",1.4
12,"H183/L072 VH H93P (antibody, name in Kabat numbering, V domains shown) VH: QVQLVESGGGLVQPGRSLRLSCAASGFTFSNAWMHWVRQAPGKGLEWVAQIKDKGNAYAAYYAPSVKGRFTISRDDSKNSIYLQMNSLKTEDTAVYYCPYVHYASASTVLPAFGVDAWGQGTTVTVSS VL: DIVMTQSPLSLPVTPGEPASISCQASQELVHMNRNTYLHWYQQKPGQAPRLLIYKVSNRFPGVPDRFSGSGSGTDFTLKISRVEAEDVGVYYCAQGTSVPFTFGQGTKLEIK",0
13,"H183/L072 VH H96L (antibody, name in Kabat numbering, V domains shown) VH: QVQLVESGGGLVQPGRSLRLSCAASGFTFSNAWMHWVRQAPGKGLEWVAQIKDKGNAYAAYYAPSVKGRFTISRDDSKNSIYLQMNSLKTEDTAVYYCHYVLYASASTVLPAFGVDAWGQGTTVTVSS VL: DIVMTQSPLSLPVTPGEPASISCQASQELVHMNRNTYLHWYQQKPGQAPRLLIYKVSNRFPGVPDRFSGSGSGTDFTLKISRVEAEDVGVYYCAQGTSVPFTFGQGTKLEIK",0.8
